Test results published in publication doi:10.1101/2020.01.21.914671.

What was measured:
Experiment in all cases: ITC
[1] = target: human Bmf BH3 motif peptide (26-mer) (human)
[2] = target: human Bad BH3 motif peptide (26-mer) (human)
[3] = target: human Hrk BH3 motif peptide (26-mer) (human)
[4] = target: human Puma BH3 motif peptide (26-mer) (human)

| Substance | fold reduction in binding against wild type TANV16L [1] | fold reduction in binding against wild type TANV16L [2] | fold reduction in binding against wild type TANV16L [3] | fold reduction in binding against wild type TANV16L [4] |
| --- | --- | --- | --- | --- |
| TANV16L K52A lacking the C-terminal 23 residues (domain or fragment) | 20 fold | 27 fold | – | – |
| TANV16L R90A lacking the C-terminal 23 residues (domain or fragment) | – | – | 2 fold | 2 fold |
